# According to patent US12006519B2, “Polymerase mutants and use with 3′-OH unblocked reversible terminators” (Agilent Technologies, Inc., priority 2021, dated 2024):
# Tests used:
# Type in all cases: biochemical
# [1] = test system: Lightning Terminators; assay: Sequencing-by-synthesis with Lightning Terminators (87 cycles); parameters: ARL (87 cycles) / Lead + Lag / Leading / Lagging: unit not given here
# Experimental: (§1) This section generally describes how the present mutant polymerases were used for sequencing-by-synthesis, and how their performance in sequencing was measured. Sequencing was performed on a breadboard instrument, essentially as described in Hertzog D, et al., “A high-performance, low-cost approach to next-generation sequencing”, BioOptics World. 2011 Issue November/December 2011.
# In this example, mutations were introduced into the DNA polymerase of SEQ ID NO: 12 (Therminator) in an attempt to improve its capability in sequencing with 3′-OH unblocked terminators. Such mutations to Thermococcus sp. 9° N DNA polymerase are disclosed in U.S. Pat. Nos. 9,273,352; 9,677,059; 9,765,309; U.S. Pat. App. Publication No. 20160032377. The following table summarizes sequencing metrics with Lightning Terminators.
# As used in this example and those that follow, “Lead+Lag” refers to dephasing errors in Sequencing by Synthesis technology caused by either reading the next base signal (Lead) or reading the previous base signal (Lag) relative to current base signals. Such errors may arise because of imperfect incoporation of reversible terminators by the polymerase.
# In this example, mutant polymerases were created by introducing certain mutations (D141A/E143A/A485L) which are present in Therminator. The three mutations were introduced at the equivalent positions in JDF3 (Thermococcus sp. JDF3) and Pfu (Pyrococcus furisosus) DNA polymerases. The new mutant polymerases were then evaluated for their performance in sequencing with Lightning Terminators, as described above.
# [2] = test system: LTC; assay: Plate-based assay with immobilized primer-templates, incorporation of LTC; details: FIG. 6
# Experimental: (§2) In this example, additional mutant polymerases were derived from Pfu polymerase. To generate the mutants, eighty-seven codons in the Pfu pol B gene were saturated using the QuikChange Lightning Mutagenesis kit and oligonucleotides containing “NDT” codons to create R, N, D, C, G, H, I, L, F, S, Y, and V substitutions with equal frequency. In some cases, mutants missing from NDT libraries were prepared in a separate QuikChange reaction with an equimolar mixture of mutagenic oligos encoding the remaining mutations (A, T, K, Q, E, P, […], W). Thirty-two clones were randomly selected from each QuikChange library (with the exception of T267, Y403, Y410, I475, G499 and K675 libraries which generated fewer transformants). Bacterial lysates were prepared and screened for incorporation of LTA and LTC using a plate-based assay with immobilized primer-templates. A limited number of mutants were also screened for utilization of LTG and LTU (similar trends; data not shown). After washing and UV cleavage (to minimize dye quenching effects), plates were read and fluorescent signals compared to Pfu controls. The following table identifies four mutant Pfu polymerases that served as controls, which were given the arbitrary names Pfu5, Pfu1, and Pfu2, along with Pfu10 (which is discussed above).
# [3] = test system: Lightning Terminators; assay: Plate-based assay, incorporation of Lightning Terminators by control extracts; details: for Utilization of Lightning Terminators (in words): control extracts, FIG. 6, FIGS. 7A-7B
# Experimental: as §2
# Selected lysates, based on screening results, were submitted for sequencing, and an amino acid identification was made based on the selections. […] As shown in Example 3, K477W benefits sequencing by increasing the fraction of full-length reads.
# [4] = test system: Human DNA library; assay: Sequencing with Lightning Terminators, Human DNA library (120 cycles); details: Human DNA library
# Experimental: as §1
# (§3) In this example, a variety of mutations were introduced into Pfu10 by multi-site mutagenesis or into Pfu A486L/Y546H by domain substitutions to explore an acceptable degree of reduced identity and identify other mutant Pfu polymerases containing L486, F494, H546, and W477. […] Pfu10 and Pfu10-N12 were evaluated for performance in sequencing with Lightning Terminators, as described above.
# [5] = test system: E. coli DNA library; assay: Sequencing with Lightning Terminators, E. coli DNA library (120 cycles)
# Experimental: as §1, §3
# [6] = test system: dATP; assay: Template-independent DNA synthesis assay with dATP (terminal transferase activity)
# Experimental: The template-independent DNA synthesis reactions employed 7.5 U TdT (Promega) or 180 nM (3×over primer) Pfu26 (D141A/E143A/A486L/Y546H/K477W/L409Y) or Pfu48 (D141A/E143A/A486R/Y546H/K477W/L409Y). Varying concentrations of dATP were added to 2 μM (TdT) or 60 nM (Pfu) T7 FOR primer (6′Fam […]) (SEQ ID NO:6) in duplicate reactions containing 1×TdT buffer with CoCl2(Promega) or 1×ThermoPol buffer (NEB). Reactions were incubated for 30 min. at 37° C. (TdT) or 60° C. (Pfu), and then inactivated with heat (TdT; 10 min. at 70° C.) or EDTA (1 ul 500 uM EDTA). Reaction products were exposed to UV using a Stratalinker (15-watt bulbs, […], 10 min). Reactions were diluted in water (TdT, 1:333; Pfu, 1:10) and 1 μl (TdT) or 0.5 μl (Pfu) aliquots were brought up to 10 μl with HiDI/LIZ 120 Size Standard. Products were heated at 95° C. for 5 min., cooled on ice for 2 min., and then analyzed on an ABI 3500 capillary electrophoresis system ([…] capillary, filter set #5, assay=GE5 LIZ120).
# Terminal transferase activity was measured by the number of template-independent dATP additions. Results are shown for TdT in FIG. 9A, for Pfu26 in FIG. 9B and for Pfu48 in FIG. 9C.
# [7] = alternative polymerases (D141A/E143A), same protein concentrations (0.02 ug/uL in cycle 1 and 0.002 ug/uL in cycles 2-n)
molecule,measurement,setting,value
"Pfu2: Pfu DNA polymerase with D141A/E143A/A486L/Y546H (protein, UniProt P61875 1-775, looked up, variant D141A E143A A486L Y546H) DNA polymerase: MILDVDYITEEGKPVIRLFKKENGKFKIEHDRTFRPYIYALLRDDSKIEEVKKITGERHGKIVRIVDVEKVEKKFLGKPITVWKLYLEHPQDVPTIREKVREHPAVVDIFEYDIPFAKRYLIDKGLIPMEGEEELKILAFAIATLYHEGEEFGKGPIIMISYADENEAKVITWKNIDLPYVEVVSSEREMIKRFLRIIREKDPDIIVTYNGDSFDFPYLAKRAEKLGIKLTIGRDGSEPKMQRIGDMTAVEVKGRIHFDLYHVITRTINLPTYTLEAVYEAIFGKPKEKVYADEIAKAWESGENLERVAKYSMEDAKATYELGKEFLPMEIQLSRLVGQPLWDVSRSSTGNLVEWFLLRKAYERNEVAPNKPSEEEYQRRLRESYTGGFVKEPEKGLWENIVYLDFRALYPSIIITHNVSPDTLNLEGCKNYDIAPQVGHKFCKDIPGFIPSLLGHLLEERQKIKTKMKETQDPIEKILLDYRQKLIKLLANSFYGYYGYAKARWYCKECAESVTAWGRKYIELVWKELEEKFGFKVLYIDTDGLHATIPGGESEEIKKKALEFVKYINSKLPGLLELEYEGFYKRGFFVTKKRYAVIDEEGKVITRGLEIVRRDWSEIAKETQARVLETILKHGDVEEAVRIVKEVIQKLANYEIPPEKLAIYEQITRPLHEYKAIGPHVAVAKKLAAKGVKIKPGMVIGYIVLRGDGPISNRAILAEEYDPKKHKYDAEYYIENQVLPAVLRILEGFGYRKEDLRYQKTRQVGLTSWLNIKKS",Sequencing performance with Lightning Terminators (in words),[1],nearly identical to Therminator
same,% reads >85,[1]; [7],49.7%
same,ARL (87 cycles),[1]; [7],75.3
same,Lead + Lag,[1]; [7],1.3
same,Incorporation of LTC (in words),[2],maximize incorporation of LTC
same,Utilization of Lightning Terminators (in words),[3],could utilize Lightning Terminators
"Pfu10: Pfu D141A/E143A/K477W/A486L/Y546H, SEQ ID NO:2 (protein, Mutant of Pyrococcus furiosus Polymerase) MILDVDYITEEGKPVIRLFKKENGKFKIEHDRTFRPYIYALLRDDSKIEEVKKITGERHGKIVRIVDVEKVEKKFLGKPITVWKLYLEHPQDVPTIREKVREHPAVVDIFEYDIPFAKRYLIDKGLIPMEGEEELKILAFAIATLYHEGEEFGKGPIIMISYADENEAKVITWKNIDLPYVEVVSSEREMIKRFLRIIREKDPDIIVTYNGDSFDFPYLAKRAEKLGIKLTIGRDGSEPKMQRIGDMTAVEVKGRIHFDLYHVITRTINLPTYTLEAVYEAIFGKPKEKVYADEIAKAWESGENLERVAKYSMEDAKATYELGKEFLPMEIQLSRLVGQPLWDVSRSSTGNLVEWFLLRKAYERNEVAPNKPSEEEYQRRLRESYTGGFVKEPEKGLWENIVYLDFRALYPSIIITHNVSPDTLNLEGCKNYDIAPQVGHKFCKDIPGFIPSLLGHLLEERQKIKTKMKETQDPIEWILLDYRQKLIKLLANSFYGYYGYAKARWYCKECAESVTAWGRKYIELVWKELEEKFGFKVLYIDTDGLHATIPGGESEEIKKKALEFVKYINSKLPGLLELEYEGFYKRGFFVTKKRYAVIDEEGKVITRGLEIVRRDWSEIAKETQARVLETILKHGDVEEAVRIVKEVIQKLANYEIPPEKLAIYEQITRPLHEYKAIGPHVAVAKKLAAKGVKIKPGMVIGYIVLRGDGPISNRAILAEEYDPKKHKYDAEYYIENQVLPAVLRILEGFGYRKEDLRYQKTRQVGLTSWLNIKKS",Sequencing performance with Lightning Terminators (in words),[1],improved sequencing enzyme
same,% reads >85 bp,[1]; Example 3,69.5%
same,FracQ30,[1]; Example 3,0.62
same,Lagging,[1]; Example 3,0.66
same,Leading,[1]; Example 3,0.24
same,ARL (87 cycles),"[1]; Example 3, Therminator 110 runs, Pfu10 12 runs",80.4
same,% reads >85,[4],92.0%
same,ARL (120 cycles),[4],109.7
same,FracQ30,[4],0.65
same,Lead + Lag,[4],1.1
same,% reads >85,[5],79.9%
same,ARL (120 cycles),[5],92.3
same,FracQ30,[5],0.63
same,Lead + Lag,[5],0.8
same,Incorporation of LTC (in words),[2],maximize incorporation of LTC
same,Effect on LTA and LTU incorporation (in words),"[3]; K477W, or final fluorescence due to tryptophan quenching",negative impact on LTA and LTU incorporation
same,Utilization of Lightning Terminators (in words),[3],could utilize Lightning Terminators
same,Non-templated dA-addition (terminal transferase activity),[6],fail to perform non-templated dA-addition
